Here are results for six substances from PMC6659695.

The target in test [1] is microtubules (paclitaxel-stabilized, polymerized from tubulin). Nature of the test: optical tweezers unbinding-force assay (constant-pulling); as a1 but with 1 mM ATP; non-reducing conditions.
Target sequence in this assay (chain, as listed by the source, chain 1 of 2): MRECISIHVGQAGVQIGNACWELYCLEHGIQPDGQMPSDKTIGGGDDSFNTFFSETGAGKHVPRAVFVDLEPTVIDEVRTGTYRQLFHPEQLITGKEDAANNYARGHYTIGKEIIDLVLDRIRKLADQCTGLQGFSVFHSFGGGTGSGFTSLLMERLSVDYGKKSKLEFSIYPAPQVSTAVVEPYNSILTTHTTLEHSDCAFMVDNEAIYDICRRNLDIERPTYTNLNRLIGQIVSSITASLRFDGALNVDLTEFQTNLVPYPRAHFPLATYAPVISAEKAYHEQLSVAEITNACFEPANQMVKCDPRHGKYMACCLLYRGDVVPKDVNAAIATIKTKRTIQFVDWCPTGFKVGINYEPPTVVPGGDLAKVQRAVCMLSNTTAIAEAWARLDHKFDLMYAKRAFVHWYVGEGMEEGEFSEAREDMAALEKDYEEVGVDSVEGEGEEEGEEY
Target sequence in this assay (chain, as listed by the source, chain 2 of 2): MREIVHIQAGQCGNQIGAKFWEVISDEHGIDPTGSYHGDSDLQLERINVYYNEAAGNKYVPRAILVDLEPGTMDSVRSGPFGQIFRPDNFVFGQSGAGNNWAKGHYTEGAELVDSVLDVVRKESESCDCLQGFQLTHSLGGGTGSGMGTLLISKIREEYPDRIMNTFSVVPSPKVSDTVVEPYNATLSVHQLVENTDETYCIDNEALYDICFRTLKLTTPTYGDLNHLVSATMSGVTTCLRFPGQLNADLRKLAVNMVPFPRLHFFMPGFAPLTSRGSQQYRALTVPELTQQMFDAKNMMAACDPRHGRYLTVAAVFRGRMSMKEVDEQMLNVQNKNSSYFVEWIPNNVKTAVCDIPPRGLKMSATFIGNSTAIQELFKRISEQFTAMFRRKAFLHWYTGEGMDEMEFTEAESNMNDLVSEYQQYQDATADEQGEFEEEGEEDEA
Test [2] shares this target. Kind of test: optical tweezers unbinding-force assay (constant-pulling); as a1 but with 1 mM ATP and TCEP (2 mM by the legend) to cleave the disulfide bonds of the stalk helices.
Target sequence in this assay (P02550 whole entry, chain 1 of 2): as the sequence (chain, as listed by the source, chain 1 of 2) above
Target sequence in this assay (P02554 whole entry, chain 2 of 2, further chain): as the sequence (chain, as listed by the source, chain 2 of 2) above
Test [3] shares this target. Kind of test: optical tweezers unbinding-force assay (constant-pulling); motor held by its GFP on anti-GFP Fab-coated ~1-μm beads in an optical trap, MTs immobilized on the coverslip (biotin-streptavidin) and swept past the bead; single-molecule level; no nucleotide (apo, residual ATP 37.5 nM); non-reducing conditions; 30 mM HEPES, 2 mM MgAc2, 1 mM EGTA, 20 μM paclitaxel, pH 7.2; theoretical loading rate 5.6 pN/s; primary unbinding events only.
Target sequence in this assay (P02550 whole entry, chain 1 of 2): as the sequence (chain, as listed by the source, chain 1 of 2) above
Target sequence in this assay (P02554 whole entry, chain 2 of 2, further chain): as the sequence (chain, as listed by the source, chain 2 of 2) above

Test [4] has the same target. Kind of test: single-molecule TIRF dwell-time measurement; zero load; labeled single heads binding to and leaving surface-immobilized Cy5-labeled MTs, 100 ms per frame; apo state (2 U/ml apyrase); 30 mM HEPES, 2 mM MgAc2, 1 mM EGTA, pH 7.2; unbinding rate from an exponential fit of the CDF of dwell times.
Target sequence in this assay (chain, as listed by the source, chain 1 of 2): as the sequence (chain, as listed by the source, chain 1 of 2) above
Target sequence in this assay (chain, as listed by the source, chain 2 of 2): as the sequence (chain, as listed by the source, chain 2 of 2) above

On to “AAA1 E/Q Dyn1_(331kDa) (E/Q mutation in the AAA1 Walker B motif), P36022 1219-4092”, for which, in test [1], the mean unbinding force (both directions) is below 1 pN.

As for “AAA1 E/Q Dyn1_(331kDa)-α CL (AAA1 Walker B E/Q; K3077C, A3250C) (from UniProt P36022 1219-4092) (domain or fragment)”, in test [2], the mean unbinding force (both directions) was below 1 pN.

The substance “Dyn1_(331kDa)-α CL (K3077C, A3250C; stalk helices disulfide cross-linked in the α-registry) (from UniProt P36022 1219-4092) (domain or fragment)” returned a mean unbinding force, forward load in test [3] of 2.2 pN. In test [3], “Dyn1_(331kDa)-β CL (I3076C, L3247C; stalk helices disulfide cross-linked in the β-registry) (from UniProt P36022 1219-4092) (domain or fragment)” had a mean unbinding force, backward load of 0.7 pN and a mean unbinding force, forward load of 0.7 pN. In test [3], “GFP-Dyn1_(331kDa), tail-truncated monomeric S. cerevisiae cytoplasmic dynein motor domain (wild type) (from UniProt P36022 1219-4092) (domain or fragment)” returned a mean unbinding force, forward load of 1.6 pN.

As for “SNAP-tagged Dyn1_(331kDa)-β CL (β-mutant heads labeled via an inserted N-terminal SNAP-tag), P36022 1219-4092”, the average MT-bound time in test [4] worked out at 290 ms.
